Legend:
hfRPE monolayers = experiment: electrophysiology of hfRPE monolayers (TEP, RT, VA, VB, RA/RB); assay type: cell-based, human
Source text: Equivalent circuit analysis and electrophysiological methods have been previously described in Quinn, R. H., et al., Invest Ophthalmol Vis Sci, 1992, 33, 3513-3527; Joseph D. P., et al., J Physiol, 1991, 435, 439-463; and Maminishkis, A., et al., 2006, Ophthalmol Vis Sci, 47, 3612-3624each incorporated herein by reference in its entirety.
Briefly, confluent monolayers of cultured hfRPE were mounted on a nylon mesh support and clamped into a modified Üssing chamber that allowed the rapid exchange of Ringer's solution (≈10 chamber volumes per minute) and the measurement of fast electrical changes in seconds. The electrical connections to the apical and basal chambers were made with Ringer-agar bridges in series with calomel electrodes. Intracellular potentials were recorded with conventional microelectrodes, back-filled with 150 mM KCl, with resistances of 80 to 200 Ma The apical and basolateral membrane potentials (VA and VB) are calculated as the voltage differences between the intracellular microelectrode and the apical and basal bath electrodes, respectively. The resistances of the apical and basolateral membranes were designated RA and RB, respectively, and the transepithelial potential (TEP=VB-VA) is the voltage difference between the apical and basal bath electrodes. Epithelial resistance parameters were obtained by passing 4-μA bipolar current pulses (i) using Ag—AgCl electrodes, one located in the apical chamber and the other located in the basal chamber. The total transepithelial resistance (Rt) is calculated from the current-induced changes in TEP (Rt=ΔTEP/i). The apparent membrane resistance ratio (RA/RB) is calculated from the ratio of change in VA to change in VB (RA/RB=ΔVA/ΔVB).
The control Ringer's solution for measurements of TEP and Rt in culture hfRPE contained 116 mM NaCl, 5 mM KCl, 26.2 mM NaHCO3, 1 mM NaH2PO4, 1 mM Mg Cl2, 1.8 mM CaCl2, 10 mM glucose, and 2 mM Taurine. The osmolarity of control Ringer's solution was 295 mOsm. The solutions were maintained at 35° C. and a pH of 7.4, and were bubbled with 10% O2, 5% CO2 and 85% N2. 8-Bromo-cAMP (or Dibutyryl cAMP), 8-Br-cGMP, and forskolin were obtained from Sigma-Aldrich.

hfRPE monolayer = experiment: fluorescence imaging of intracellular calcium; assay type: cell-based, human; settings: IFNγ 0.5, 5, 50 ng/ml both sides; n=4
Experimental: Therefore, whether the CFTR pathway was involved in the response to IFNγ was examined using cAMP assays as described in Example 8. Primary cultures of hfRPE cells were incubated in control media, in the presence of IFNγ (0.5, 5, or 50 ng/ml), or in forskolin containing media (10 μM) for different amounts of time (5 minutes, 45 minutes, 12 hours, or 24 hours), and then total intracellular cAMP levels were measured using a cAMP ELISA System (Applied Biosystems, Foster City, Calif.). […] (n=3; P<0.05). […] In a separate set of experiments, fluorescence imaging was used to measure the intracellular concentration of calcium [Ca^2+]I in the presence of IFNγ (0.5, 5, 50 ng/ml) added to both sides of the hfRPE monolayer and no change in total cell [Ca^2+]I was observed (n=4, data not shown).

[1] = Phase I study of topical interferon gamma-1b in CME secondary to uveitis (OCT macular thickness); assay type: in vivo, human; settings: based on therapeutic treatment of topical IFNα
Source text: To test whether cystoid macular edema (CME), secondary to uveitis, is caused by the disequilibrium of the Jak/Stat and mTor signal transduction pathways in the retinal pigment epithelium (RPE), interferon gamma-1β topically applied in human patients. Five participants with CME secondary to uveitis receive a topical ocular instillation of interferon gamma-1b in a Phase I, non-randomized, prospective, uncontrolled, dose-escalation, single-center study. The study involves a one-time instillation or series of instillations of interferon gamma-1b on the cornea and measurement of a response with optical coherence tomography (OCT) over a three hour period.
A 25% decrease in macular thickness is observed at a post-instillation as compared to baseline. In the study, the first two participants receive one instillation (each instillation contains […] in 0.05 mL solution) on the cornea at time zero, the next two participants receive two instillations, 10 minutes apart, for a total dosage of 20 μg, and the final participant receives three instillations, 10 minutes apart, for a total of 30 μg. OCT will be obtained at −60 minutes, −30 minutes and just before the instillation(s). […]
Participants with CME secondary to uveitis are treated with ocular instillation(s) of interferon gamma-1b. […] The effect on the retinal thickness is measured using OCT measurements as indicated below. […]

[2] = IFNγ 100 ng/ml apical and basal, FIG. 17A
[3] = IFNγ 500 ng/mL apical and basal, FIG. 22

B1: IFNγ: pleiotropic cytokine produced by T- and NK-cells; obtained from Peprotech (protein, UniProt P01579 24-161, looked up)
Interferon gamma: QDPYVKEAENLKKYFNAGHSDVADNGTLFLGILKNWKEESDRKIMQSQIVSFYFKLFKNFKDDQSIQKSVETIKEDMNVKFFNSNKKKRDDFEKLTNYSVTDLNVQRKAIHELIQVMAELSPAAKTGKRKRSQMLFRG
RT decrease (hfRPE monolayers; [2]): 15 Ω·cm^2
TEP increase (hfRPE monolayers; [2]): 0.9 mV
depolarization of both VA and VB (hfRPE monolayers; [3]): approximately 2.5 mV
increase in RA/RB (hfRPE monolayers; [3]): 0.2
increase in TEP (hfRPE monolayers; [3]): 0.3 mV
ΔRT (decrease) (hfRPE monolayers; IFNγ, mean of experiments): 17±2 Ω·cm^2
ΔTEP (increase) (hfRPE monolayers; IFNγ, mean of experiments): 0.5±0.1 mV
total cell [Ca^2+]I (hfRPE monolayer): no change
tolerability of topically applied IFNγ [1]: well-tolerated

From patent US9486502B2, “Methods of administering interferon gamma to absorb fluid from the subretinal space” (The United States of America, as represented by the …, priority 2008, dated 2016)
